{
  "source": "paper PMC9107065",
  "target": "30-601-30 nucleosome with Cy3-labeled H2B(K120C) (Xenopus laevis)",
  "assay": "other fluorescence titration",
  "data": [
    {"substance": "Saccharomyces cerevisiae Chd1[Y137A] (from UniProt P32657 118-1274) (enzyme)", "values": [
      {"measurement": "other", "result": 40, "unit": "%"}
    ]}
  ]
}
